# T1: hiR2-FL-F588H-T7 (human, UniProt Q6PJF5 1-856)
# T1 sequence: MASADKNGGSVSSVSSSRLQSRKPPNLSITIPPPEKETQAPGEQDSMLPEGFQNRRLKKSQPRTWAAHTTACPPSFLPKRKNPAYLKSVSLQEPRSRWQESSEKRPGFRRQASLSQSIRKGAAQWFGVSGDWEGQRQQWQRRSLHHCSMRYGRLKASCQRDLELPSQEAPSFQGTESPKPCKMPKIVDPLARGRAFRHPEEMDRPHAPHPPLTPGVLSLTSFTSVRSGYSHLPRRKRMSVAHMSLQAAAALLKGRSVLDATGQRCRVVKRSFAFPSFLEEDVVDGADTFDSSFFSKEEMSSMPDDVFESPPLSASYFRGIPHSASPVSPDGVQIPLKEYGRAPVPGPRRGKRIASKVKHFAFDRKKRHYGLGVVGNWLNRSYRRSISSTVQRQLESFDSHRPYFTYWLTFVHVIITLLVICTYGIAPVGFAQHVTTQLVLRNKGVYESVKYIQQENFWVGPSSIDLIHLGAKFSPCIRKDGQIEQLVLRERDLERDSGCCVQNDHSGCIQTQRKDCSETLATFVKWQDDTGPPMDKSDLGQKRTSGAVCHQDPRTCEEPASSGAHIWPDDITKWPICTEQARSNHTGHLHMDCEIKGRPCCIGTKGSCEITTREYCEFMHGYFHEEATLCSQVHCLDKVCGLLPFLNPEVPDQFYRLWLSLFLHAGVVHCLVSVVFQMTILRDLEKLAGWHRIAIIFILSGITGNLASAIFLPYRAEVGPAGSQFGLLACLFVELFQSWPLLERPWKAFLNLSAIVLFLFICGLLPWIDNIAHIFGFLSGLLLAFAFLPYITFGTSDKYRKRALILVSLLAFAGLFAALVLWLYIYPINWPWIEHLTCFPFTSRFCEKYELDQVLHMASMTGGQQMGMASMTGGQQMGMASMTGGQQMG
# B1: antibody 3 (antibody, V domains shown)
# VH: QVTLKESGPGILQPSQTLSLTCSFSGFSLTTFAMGIGWVRQPSGKGLEWLAHIWWDGEKYNNPVLKSRLTISKDTSKNQVFLRIANVDTPDTATYYCARISSIYYIIDNWGQGTSVTVSS
# VL: DIVLTQSPATLSVTPGHSVSLSCRASQSISNNLHWYQKKSHESPRLLIKYVSQSISGIPSRFSGSGSGTDFTLSINSVETEDFGMYFCQQSYNWPLTFGAGTKLELK
# notes: mouse IgG, kappa light chain; also called clone #3; purified antibody 3
# Biological target: T1, hiR2-FL-F588H-T7
# Test: FACS, MEF-DKO cells, 3 µg/ml
# Outline: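 MEF-DKO cells expressing T7-tagged full-length hiR2 point mutants were stained on ice for 1 h with purified antibodies at 3 μg/ml in FACS buffer. Detection used PE-conjugated goat anti-mouse IgG F(ab′)2 (1:100, 1 h on ice), read by flow cytometry; buffer-only wells served as controls.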
binder,measurement,value
B1,loss of binding vs wild type,≥ 30%
